Assay results: the supplement of paper PMC10567573

B1: ZNF8 (parent)
chain: RIHTGERPYMCKECGKAFSQNSSL

Variants of: B1
Experiment: protein stability index of a GFP-peptide fusion (GPS, HEK-293T) (PSI 1-6); higher = more stable
Settings: c terminus: a fixed tail appended
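Further: lentivirally expressed fusions sorted by FACS into six bins by GFP to DsRed ratio, PSI derived from sequencing read proportions per bin multiplied by bin number.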

Protein stability index, by site and new letter:
K16: A 2.24; H 2.29; F 2.52; T 2.73; Q 2.27; L 1.71; I 2.08; W 2.66; C 1.82; R 2.3; D 2.52; V 1.71; P 2.06; M 2.63; S 2.05; E 2.97; G 2.41; N 1.8; Y 1.61
C14: W 2.12; D 3.48; K 3.58; H 2.5; M 2.29; I 1.93; L 2.42; R 2.51; A 3.1; E 3.07; S 2.74; F 2.65; P 2.99; Y 2.2; T 2.81; G 3.18; V 2.72; N 3.15; Q 3
Q20: V 1.79; I 2.4; M 2.21; H 2.49; R 2.54; C 2.54; A 2.65; N 2.72; E 3.19; W 2.5; K 2.94; T 2.61; P 2.74; S 2.2; D 2.37; F 1.83; G 2.83; Y 2.06; L 2.1
K12: N 2.66; E 2.9; H 1.96; L 1.72; R 1.99; D 3.02; C 2.16; S 2.46; F 1.8; W 1.51; V 2.07; T 2.15; A 3.12; Y 2.27; M 2.52; Q 2.11; I 2.17; G 2.38; P 2.54
P8: L 2.34; Q 2.99; A 2.75; T 2.96; G 2.53; E 3.22; R 2.85; K 2.03; I 2.43; D 3.23; F 2.28; M 2.98; H 2.12; C 2.31; S 2.44; W 2.19; V 2.67; Y 2.62; N 2.04
C11: Q 3.04; N 2.81; V 2.72; D 2.78; G 3.28; T 2.48; W 1.98; E 3.42; K 3.08; R 2.67; L 2.68; P 2.84; I 2.19; A 2.73; Y 2.28; S 2.99; F 2.36; H 2.75; M 2.82
G5: Y 2.73; W 2.49
E13: A 2.08; K 1.78; F 1.59; Q 2.24; C 1.85; Y 1.92; L 2.3; M 2.05; D 1.39; H 2.14; T 1.96; R 1.87; V 2.1; P 2.07; I 1.88; N 2.35; S 1.95; G 1.94
R7: N 3.38; G 3.23; A 2.6; Q 3.2; Y 2.39; I 2.6; M 2.77; W 2.9; D 3.36; V 2.37; H 3.36; K 2.35; L 2.65; T 4; F 2.99; C 3.77; E 3.85; P 2.44; S 2.53
S22: D 2.4; G 2.68; M 2.22; I 1.91; Q 2.58; A 2.49; F 1.89; W 2.22; L 2.05; K 2.4; E 1.98; V 1.9; H 2; T 2.34
